Experimental data taken from paper PMC4108407, “6-Hydroxy-3-Succinoylpyridine Hydroxylase Catalyzes a Central Step of Nicotine Degradation in Agrobacterium tumefaciens S33” (PLoS ONE, 2014).

Assays:
Assay in all cases: purified protein
[1] = test system: NC(=O)C1=CN([C@@H]2O[C@H](COP(=O)(O)OP(=O)(O)OC[C@H]3O[C@@H](n4cnc5c(N)ncnc54)[C@H](OP(=O)(O)O)[C@@H]3O)[C@@H](O)[C@H]2O)C=CC1; details: 50 mM phosphate buffer pH 8.0, 30°C, co-substrate HSP, FAD
[2] = test system: NC(=O)C1=CN([C@@H]2O[C@H](COP(=O)(O)OP(=O)(O)OC[C@H]3O[C@@H](n4cnc5c(N)ncnc54)[C@H](O)[C@@H]3O)[C@@H](O)[C@H]2O)C=CC1; details: 50 mM phosphate buffer pH 8.0, 30°C, co-substrate HSP, FAD
[3] = test system: O=C(O)CCC(=O)c1ccc(O)nc1; details: 50 mM phosphate buffer pH 8.0, 30°C, co-substrate NADH, FAD

Substance “HSP hydroxylase (6-hydroxy-3-succinoylpyridine hydroxylase) (Agrobacterium tumefaciens)” has a Km [1] of 350 ± 40 µM, a Km [2] of 100 ± 10 µM and a Km [3] of 150 ± 20 µM.
